What was measured:
Test in all cases: cell-based or functional assay
[1] = target: HIV-1 Env pseudovirus BJOX028000.10.3 (HIV-1)
[2] = target: HIV-1 Env pseudovirus 0815.v3.c3 (HIV-1)
[3] = target: HIV-1 Env pseudovirus C3347.c11 (HIV-1)
[4] = target: Env of HIV-1 pseudovirus Ce2010_F5 (HIV-1)
[5] = target: Env of HIV-1 pseudovirus HIV-001428-2.42 (HIV-1)
[6] = target: Env of HIV-1 pseudovirus Ce704809221_1B3 (HIV-1)
[7] = target: Env of HIV-1 pseudovirus Ce1086_B2 (HIV-1)
[8] = target: Env of HIV-1 pseudovirus 249M B10 (HIV-1)
[9] = target: Env of HIV-1 pseudovirus CAAN5342.A2 (HIV-1)
[10] = target: Env of HIV-1 pseudovirus 6535.3 (HIV-1)
[11] = target: Env of HIV-1 pseudovirus 928-28 (HIV-1)
[12] = target: Env of HIV-1 pseudovirus HIV-16845-2.22 (HIV-1)
[13] = target: Env of HIV-1 pseudovirus HIV-16055-2.3 (HIV-1)
[14] = target: Env of HIV-1 pseudovirus QH0692.42 (HIV-1)
[15] = target: Env of HIV-1 pseudovirus ZM109F.PB4 (HIV-1)
[16] = target: Env of HIV-1 pseudovirus WEAU_d15_410_787 (HIV-1)
[17] = target: Env of HIV-1 pseudovirus CAP45.2.00.G3 (HIV-1)
[18] = target: Env of HIV-1 pseudovirus Ce0393_C3 (HIV-1)

| Substance | IC50 (Titer in TZM.bl cells) [1] [mg/L] | IC80 (Titer in TZM.bl cells) [1] [mg/L] | IC50 (Titer in TZM.bl cells) [2] [mg/L] | IC80 (Titer in TZM.bl cells) [2] [mg/L] | IC50 (Titer in TZM.bl cells) [3] [mg/L] | IC80 (Titer in TZM.bl cells) [3] [mg/L] | IC50 [4] [mg/L] | IC80 [4] [mg/L] | IC50 [5] [mg/L] | IC80 [5] [mg/L] | IC50 [6] [mg/L] | IC80 [6] [mg/L] | IC50 [7] [mg/L] | IC80 [7] [mg/L] | IC50 [8] [mg/L] | IC80 [8] [mg/L] | IC50 [9] [mg/L] | IC80 [9] [mg/L] | IC50 [10] [mg/L] | IC80 [10] [mg/L] | also measured |
| --- | --- | --- | --- | --- | --- | --- | --- | --- | --- | --- | --- | --- | --- | --- | --- | --- | --- | --- | --- | --- | --- |
| VRC07 (antibody) | 0.011 | 0.069 | 0.015 | 0.051 | 0.06 | 0.38 |  |  |  |  |  |  |  |  |  |  |  |  |  |  |  |
| 10-1074 (antibody) |  |  |  |  |  |  | > 50 | > 50 | 0.044 | 0.261 | 0.139 | 0.696 | > 50 | > 50 | > 50 | > 50 | 0.007 | 0.036 | 0.014 | 0.026 | IC50 [11]: 0.847 mg/L; IC80 [11]: 4.7 mg/L; IC50 [12]: 1.17 mg/L; IC80 [12]: 5.83 mg/L; IC50 [13]: > 50 mg/L; IC80 [13]: > 50 mg/L; IC50 [14]: 0.191 mg/L; IC80 [14]: 0.929 mg/L; IC50 [15]: > 50 mg/L; IC80 [15]: > 50 mg/L; IC50 [16]: 0.104 mg/L; IC80 [16]: 0.375 mg/L; IC50 [17]: > 50 mg/L; IC80 [17]: > 50 mg/L; IC50 [18]: > 50 mg/L; IC80 [18]: > 50 mg/L |
| 3BNC117 (antibody) | 0.01 | 0.05 | 0.01 | 0.02 | 0.03 | 0.13 |  |  |  |  |  |  |  |  |  |  |  |  |  |  |  |
| 8ANC195 (antibody) | 0.45 | 2.83 | 1.94 | 1.94 | > 50 | > 50 |  |  |  |  |  |  |  |  |  |  |  |  |  |  |  |
| PG9 (antibody) |  |  |  |  |  |  | > 50 | > 50 | 0.101 | 0.25 | 0.037 | 0.137 | > 50 | > 50 | 0.095 | 0.29 | 4.6 | 27 | 0.176 | 0.627 | IC50 [11]: 0.101 mg/L; IC80 [11]: 0.45 mg/L; IC50 [12]: 4.4 mg/L; IC80 [12]: > 50 mg/L; IC50 [13]: 0.021 mg/L; IC80 [13]: 0.06 mg/L; IC50 [14]: > 50 mg/L; IC80 [14]: > 50 mg/L; IC50 [15]: 0.256 mg/L; IC80 [15]: 6.69 mg/L; IC50 [16]: 4.08 mg/L; IC80 [16]: > 50 mg/L; IC50 [17]: 0.007 mg/L; IC80 [17]: 0.029 mg/L; IC50 [18]: 0.02 mg/L; IC80 [18]: 0.055 mg/L |
